Results published in publication PMC12240541 (Science (New York, N.Y.), 2021).

B1: S2X303 mAb (antibody, V domains shown)
VH: QITLKESGPTLVKPTQTLTLTCKLSGFSVNTGGVGVGWIRQPPGKALEWLALIYWNDDKLYSPSLKSRLTVTKDTSKNQVVLTMTNMDPVDTATYYCAHVLVWFGEVLPDAFDVWGQGTMVTVSS
VL: SYELTQPPSVSVSPGQTASITCSGDKLGETYASWYQQKPGQSPILVIYQDNKRPSGIPERFSGSNSENTATLTISGTQTMDEADYYCQAWDKTIAGFGGGTKLTV
notes: copies: 2 + 2
B2: S2L20 mAb (antibody, V domains shown)
VH: EVQLVESGGGVVQPGGSLRLSCAASGFTFNSYGMHWVRQAPGKGLEWVAFIRYDGGNKYYADSVKGRFTISRDNSKNTLYLQMKSLRAEDTAVYYCANLKDSRYSGSYYDYWGQGTLVTVS
VL: not shown
notes: copies: 2 + 2

Target: recombinant SARS-CoV-2 wildtype Wuhan-Hu-1 S ectodomain trimer (SARS-CoV-2, Wuhan-Hu-1, UniProt P0DTC2)
Experiment: ELISA
Conditions: both partners purified

Binder	binding result
B1	binds
B2	binds
